Legend:
[1] = biological target: ALPHA-2-HS-GLYCOPROTEIN (human) (UniProt P02765); assay: untreated sample on M-LAC column, displacer fraction, peak area of peptide …
[2] = biological target: Alpha-1-acid-glycoprotein (human) (UniProt P02763); assay: as above
SERO… (human) [3] = biological target: SERO… (human) (UniProt P02787); assay: as above
[4] = biological target: Beta-2-glycoprotein (human) (UniProt P02749); assay: as above
HAPTOGLOBIN-2 (human) [5] = biological target: HAPTOGLOBIN-2 (human) (UniProt P00738); assay: as above
CERULOPLASMIN (human) [6] = biological target: CERULOPLASMIN (human) (UniProt P00450); assay: human serum on M-LAC column, displacer fraction, extracted ion chromatogram of peptide …
[7] = biological target: APOLIPOPROTEIN A-I (human) (UniProt P02647); assay: as above
[8] = biological target: Alpha-1-acid-glycoprotein in neuraminidase-treated serum (human) (UniProt P02763); assay: neuraminidase-treated serum on M-LAC column, displacer fraction, LC-MS/MS; smaller rank = more abundant
[9] = biological target: Haptoglobin in neuraminidase-treated serum (human) (UniProt P00738); assay: as above
[10] = biological target: Alpha-2HS-glycoprotein in neuraminidase-treated serum (human) (UniProt P02765); assay: neuraminidized sample on M-LAC column, displacer fraction, peak area of peptide …
[11] = biological target: Haptoglobin in neuraminidase-treated serum (human) (UniProt P00738); assay: as above
[12] = biological target: Beta-2-glycoprotein in neuraminidase-treated serum (human) (UniProt P02749); assay: as above
[13] = biological target: Alpha-1-acid-glycoprotein in fucosidase-treated serum (human) (UniProt P02763); assay: fucosidase-treated serum on M-LAC column, displacer fraction, extracted ion chromatogram of peptide …
[14] = biological target: Haptoglobin in fucosidase-treated serum (human) (UniProt P00738); assay: as above
[15] = biological target: Apolipoprotein A-I in fucosidase-treated serum (human) (UniProt P02647); assay: as above
[16] = biological target: Ceruloplasmin in fucosidase-treated serum (human) (UniProt P00450); assay: as above
HAPTOGLOBIN-2 (human) [17] = biological target: HAPTOGLOBIN-2 (human) (UniProt P00738); assay: human serum on Con A/WGA/Jacalin column, lectin-specific displacer fraction, LC-MS/MS; grade = SEQUEST rank group (+ = ranks 1-5, ++++ = 16-20)
… ZONE PROTEIN (human) = … ZONE PROTEIN (human) (UniProt P20742); assay: human serum on M-LAC column, displacer fraction, extracted ion chromatogram of peptide … (so in the source)
[18] = biological target: Alpha-1-acid-glycoprotein in fucosidase-treated serum (human) (UniProt P02763); assay: fucosidase-treated serum on M-LAC column, displacer fraction, LC-MS/MS; smaller rank = more abundant
[19] = biological target: Haptoglobin in fucosidase-treated serum (human) (UniProt P00738); assay: as above
[20] = biological target: Apolipoprotein A-I in fucosidase-treated serum (human) (UniProt P02647); assay: as above
[21] = biological target: Ceruloplasmin in fucosidase-treated serum (human) (UniProt P00450); assay: as above
[22] = biological target: ALPHA-2-HS-GLYCOPROTEIN (human) (UniProt P02765); assay: human serum on M-LAC column, displacer fraction, extracted ion chromatogram of peptide …
[23] = biological target: Alpha-1-acid-glycoprotein (human) (UniProt P02763); assay: as above
SERO… (human) [24] = biological target: SERO… (human) (UniProt P02787); assay: as above
[25] = biological target: Beta-2-glycoprotein (human) (UniProt P02749); assay: as above
HAPTOGLOBIN-2 (human) [26] = biological target: HAPTOGLOBIN-2 (human) (UniProt P00738); assay: as above
[27] = biological target: ALPHA-2-HS-GLYCOPROTEIN (human) (UniProt P02765); assay: human serum on M-LAC column, displacer fraction, LC-MS/MS; smaller rank = more abundant
[28] = biological target: Alpha-1-acid-glycoprotein (human) (UniProt P02763); assay: as above
SERO… (human) [29] = biological target: SERO… (human) (UniProt P02787); assay: as above
CERULOPLASMIN (human) [30] = biological target: CERULOPLASMIN (human) (UniProt P00450); assay: as above
[31] = biological target: Beta-2-glycoprotein (human) (UniProt P02749); assay: as above
[32] = biological target: APOLIPOPROTEIN A-I (human) (UniProt P02647); assay: as above
HAPTOGLOBIN-2 (human) [33] = biological target: HAPTOGLOBIN-2 (human) (UniProt P00738); assay: as above

Chain of Apolipoprotein A-I in fucosidase-treated serum (human) (P02647 25-267 limits assumed): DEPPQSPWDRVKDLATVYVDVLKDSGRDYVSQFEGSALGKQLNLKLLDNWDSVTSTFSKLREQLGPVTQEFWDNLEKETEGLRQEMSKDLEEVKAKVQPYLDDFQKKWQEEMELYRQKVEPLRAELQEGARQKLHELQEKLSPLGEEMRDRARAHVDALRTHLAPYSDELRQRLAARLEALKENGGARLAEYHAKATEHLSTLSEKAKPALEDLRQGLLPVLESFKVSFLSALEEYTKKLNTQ
Chain of UniProt P02647 (P02647 25-267 limits assumed): as above
Chain of Alpha-1-acid-glycoprotein in fucosidase-treated serum (human) (P02763 19-201 limits assumed): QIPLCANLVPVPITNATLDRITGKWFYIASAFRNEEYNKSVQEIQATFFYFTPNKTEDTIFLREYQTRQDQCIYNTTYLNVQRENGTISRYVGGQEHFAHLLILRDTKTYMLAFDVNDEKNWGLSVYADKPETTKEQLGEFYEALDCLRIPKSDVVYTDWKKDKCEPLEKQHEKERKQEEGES
Chain of Alpha-1-acid-glycoprotein (human) (P02763 19-201 limits assumed): as above
Chain of Alpha-1-acid-glycoprotein in neuraminidase-treated serum (human) (P02763 19-201 limits assumed): as above
Chain of UniProt P02765 (P02765 19-300 limits assumed, chain 1 of 2): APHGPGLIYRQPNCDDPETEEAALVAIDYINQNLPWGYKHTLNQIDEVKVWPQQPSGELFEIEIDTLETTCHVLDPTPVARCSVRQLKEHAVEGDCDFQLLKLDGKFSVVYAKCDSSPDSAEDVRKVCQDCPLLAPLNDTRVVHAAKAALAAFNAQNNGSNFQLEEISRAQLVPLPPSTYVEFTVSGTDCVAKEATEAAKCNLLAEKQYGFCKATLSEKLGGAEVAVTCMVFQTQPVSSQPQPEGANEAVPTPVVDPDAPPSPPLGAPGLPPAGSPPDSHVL
Chain of UniProt P02765 (P02765 341-367 limits assumed, chain 2 of 2): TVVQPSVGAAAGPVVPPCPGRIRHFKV
Chain of Alpha-2HS-glycoprotein in neuraminidase-treated serum (human) (P02765 19-300 limits assumed, chain 1 of 2): as the sequence (P02765 19-300 limits assumed, chain 1 of 2) above
Chain of … ZONE PROTEIN (human) (P20742 26-1482 limits assumed): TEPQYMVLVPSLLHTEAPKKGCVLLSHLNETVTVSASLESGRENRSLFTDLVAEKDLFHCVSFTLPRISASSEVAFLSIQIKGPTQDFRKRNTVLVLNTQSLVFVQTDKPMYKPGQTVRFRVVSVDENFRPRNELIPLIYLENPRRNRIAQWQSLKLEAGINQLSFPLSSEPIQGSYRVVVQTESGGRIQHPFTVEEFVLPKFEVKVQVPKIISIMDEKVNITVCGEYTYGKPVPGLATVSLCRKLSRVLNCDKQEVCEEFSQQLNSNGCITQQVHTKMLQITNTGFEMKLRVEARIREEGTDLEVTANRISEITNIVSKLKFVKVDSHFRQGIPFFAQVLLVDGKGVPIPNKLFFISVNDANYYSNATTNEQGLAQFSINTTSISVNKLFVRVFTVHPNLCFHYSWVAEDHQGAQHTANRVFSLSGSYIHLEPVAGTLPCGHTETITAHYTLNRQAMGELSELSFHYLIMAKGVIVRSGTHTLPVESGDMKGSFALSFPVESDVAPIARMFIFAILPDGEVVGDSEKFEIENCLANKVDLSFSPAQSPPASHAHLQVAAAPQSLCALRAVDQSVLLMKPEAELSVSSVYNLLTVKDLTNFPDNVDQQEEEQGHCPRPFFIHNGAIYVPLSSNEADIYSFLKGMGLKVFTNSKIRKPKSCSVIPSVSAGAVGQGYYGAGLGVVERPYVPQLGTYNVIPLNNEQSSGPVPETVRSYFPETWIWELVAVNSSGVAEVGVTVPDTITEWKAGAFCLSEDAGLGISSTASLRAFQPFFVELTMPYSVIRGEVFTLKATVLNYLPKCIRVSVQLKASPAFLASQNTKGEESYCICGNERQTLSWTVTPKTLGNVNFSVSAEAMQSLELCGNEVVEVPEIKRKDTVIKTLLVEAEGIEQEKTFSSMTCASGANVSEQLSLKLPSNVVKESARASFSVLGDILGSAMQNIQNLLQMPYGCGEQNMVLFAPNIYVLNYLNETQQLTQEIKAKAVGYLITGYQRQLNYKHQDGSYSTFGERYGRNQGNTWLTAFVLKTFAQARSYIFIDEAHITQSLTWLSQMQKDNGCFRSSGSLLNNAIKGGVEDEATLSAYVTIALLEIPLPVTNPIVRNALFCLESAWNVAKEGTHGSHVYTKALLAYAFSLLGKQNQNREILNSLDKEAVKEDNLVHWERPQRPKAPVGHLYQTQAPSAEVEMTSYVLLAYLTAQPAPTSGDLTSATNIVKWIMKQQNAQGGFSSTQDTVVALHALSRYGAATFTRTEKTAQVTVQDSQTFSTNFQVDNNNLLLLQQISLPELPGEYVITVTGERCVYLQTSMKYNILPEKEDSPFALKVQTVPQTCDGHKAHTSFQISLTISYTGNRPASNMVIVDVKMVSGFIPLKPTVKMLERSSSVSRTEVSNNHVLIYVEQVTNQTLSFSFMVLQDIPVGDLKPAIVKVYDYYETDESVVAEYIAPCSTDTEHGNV
Chain of SERO… (human) (P02787 20-698 limits assumed): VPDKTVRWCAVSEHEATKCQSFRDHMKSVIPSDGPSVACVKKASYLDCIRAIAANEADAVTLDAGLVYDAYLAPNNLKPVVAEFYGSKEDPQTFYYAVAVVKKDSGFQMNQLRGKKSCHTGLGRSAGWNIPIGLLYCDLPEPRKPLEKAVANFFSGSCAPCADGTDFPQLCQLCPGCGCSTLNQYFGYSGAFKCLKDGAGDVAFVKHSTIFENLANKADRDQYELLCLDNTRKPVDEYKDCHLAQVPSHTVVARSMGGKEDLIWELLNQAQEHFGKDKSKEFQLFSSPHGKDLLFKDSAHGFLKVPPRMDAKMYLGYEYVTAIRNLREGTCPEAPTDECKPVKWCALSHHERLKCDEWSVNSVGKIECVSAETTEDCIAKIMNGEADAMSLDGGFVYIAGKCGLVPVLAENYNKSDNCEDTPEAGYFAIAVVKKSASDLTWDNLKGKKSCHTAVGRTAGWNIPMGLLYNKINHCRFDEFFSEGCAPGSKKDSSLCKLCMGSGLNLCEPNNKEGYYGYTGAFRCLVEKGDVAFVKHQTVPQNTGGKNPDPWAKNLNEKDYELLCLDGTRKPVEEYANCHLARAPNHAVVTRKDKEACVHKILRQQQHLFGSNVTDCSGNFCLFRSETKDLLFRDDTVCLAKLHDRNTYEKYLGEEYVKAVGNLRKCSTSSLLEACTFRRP
Chain of Haptoglobin in fucosidase-treated serum (human) (P00738 19-406 limits assumed): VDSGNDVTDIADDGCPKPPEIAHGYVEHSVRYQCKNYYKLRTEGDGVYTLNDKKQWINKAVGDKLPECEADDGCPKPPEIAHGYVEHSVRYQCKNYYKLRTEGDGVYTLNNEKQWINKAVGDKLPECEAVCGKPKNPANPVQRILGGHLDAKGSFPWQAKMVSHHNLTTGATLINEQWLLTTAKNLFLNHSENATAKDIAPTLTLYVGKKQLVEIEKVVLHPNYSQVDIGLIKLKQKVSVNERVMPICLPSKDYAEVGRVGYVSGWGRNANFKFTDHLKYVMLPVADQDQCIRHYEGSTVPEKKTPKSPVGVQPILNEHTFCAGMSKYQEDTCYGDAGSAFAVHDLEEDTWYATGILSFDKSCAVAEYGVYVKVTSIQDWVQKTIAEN
Chain of HAPTOGLOBIN-2 (human) (P00738 19-406 limits assumed): as above
Chain of Beta-2-glycoprotein (human) (P02749 20-345 limits assumed): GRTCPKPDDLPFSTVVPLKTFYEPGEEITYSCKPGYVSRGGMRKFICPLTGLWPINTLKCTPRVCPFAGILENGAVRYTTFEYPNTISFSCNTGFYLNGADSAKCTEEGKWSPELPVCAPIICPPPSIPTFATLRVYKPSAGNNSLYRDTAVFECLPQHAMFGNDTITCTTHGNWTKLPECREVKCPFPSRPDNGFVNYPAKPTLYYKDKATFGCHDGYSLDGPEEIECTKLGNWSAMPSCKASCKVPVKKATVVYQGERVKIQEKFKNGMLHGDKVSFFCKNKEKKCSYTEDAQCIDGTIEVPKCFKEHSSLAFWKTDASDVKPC

Substance | peptide peak area in displacer fraction [1] | peptide peak area in displacer fraction [2] | peptide peak area in displacer fraction (SERO… (human) [3]) | peptide peak area in displacer fraction [4] | peptide peak area in displacer fraction (HAPTOGLOBIN-2 (human) [5]) | peptide peak area in displacer fraction (CERULOPLASMIN (human) [6]) [counts] | peptide peak area in displacer fraction [7] [counts] | SEQUEST rank in displacer fraction [8] | SEQUEST rank in displacer fraction [9] | peptide peak area in displacer fraction [10] | peptide peak area in displacer fraction [11] | peptide peak area in displacer fraction [12] | peptide peak area in displacer fraction [13] [counts] | peptide peak area in displacer fraction [14] [counts] | peptide peak area in displacer fraction [15] [counts] | peptide peak area in displacer fraction [16] [counts] | peptide peak area in displacer fraction (… ZONE PROTEIN (human)) [counts] | SEQUEST rank in displacer fraction [18] | SEQUEST rank in displacer fraction [19] | SEQUEST rank in displacer fraction [20] | further results
Concanavalin A (Con A), agarose-bound (from UniProt P02866 30-281) | 2.6 | 9.2 | 23 | 3.5 | 39.3 | 7.8e+06 | 1.2e+07 | 96 | 7 | 2.6 | 46.9 | 8.4 | 1e+07 | 5.1e+07 | 1.2e+07 | 9.8e+06 | 6.6e+06 | 38 | 5 | 12 | SEQUEST ranking (relative abundance in the Con A displacement fraction) (HAPTOGLOBIN-2 (human) [17]): 6 to 10 rank; SEQUEST rank in displacer fraction [21]: 8; peptide peak area in displacer fraction [22]: 2.6e+06 counts; peptide peak area in displacer fraction [23]: 9.2e+06 counts; peptide peak area in displacer fraction (SERO… (human) [24]; peptide at M/Z 530.2): 2e+07 counts; peptide peak area in displacer fraction (SERO… (human) [24]; peptide at M/Z 790.1): 7.8e+06 counts; peptide peak area in displacer fraction [25]: 3.5e+06 counts; peptide peak area in displacer fraction (HAPTOGLOBIN-2 (human) [26]): 3.9e+07 counts; SEQUEST rank in displacer fraction [27]: 32; SEQUEST rank in displacer fraction [28]: 33; SEQUEST rank in displacer fraction (SERO… (human) [29]): 2; SEQUEST rank in displacer fraction (CERULOPLASMIN (human) [30]): 14; SEQUEST rank in displacer fraction [31]: 20; SEQUEST rank in displacer fraction [32]: 19; SEQUEST rank in displacer fraction (HAPTOGLOBIN-2 (human) [33]): 7
Jacalin lectin, agarose-bound (from UniProt P18670 1-133; P18671 1-20) | 4 | 9.7 | 20 | 2.6 | 10.1 | 2e+06 | 4e+07 | 27 | 9 | 7.4 | 12.6 | 3.8 | 1.7e+07 | 2.2e+07 | 4.3e+07 | 6.2e+06 | 0 | 19 | 7 | 5 | SEQUEST ranking (relative abundance in the Jacalin displacement fraction) (HAPTOGLOBIN-2 (human) [17]): 11 to 15 rank; SEQUEST rank in displacer fraction [21]: 6; peptide peak area in displacer fraction [22]: 4e+06 counts; peptide peak area in displacer fraction [23]: 9.7e+06 counts; peptide peak area in displacer fraction (SERO… (human) [24]; peptide at M/Z 530.2): 1.9e+07 counts; peptide peak area in displacer fraction (SERO… (human) [24]; peptide at M/Z 790.1): 7e+06 counts; peptide peak area in displacer fraction [25]: 2.6e+06 counts; peptide peak area in displacer fraction (HAPTOGLOBIN-2 (human) [26]): 1e+07 counts; SEQUEST rank in displacer fraction [27]: 14; SEQUEST rank in displacer fraction [28]: 21; SEQUEST rank in displacer fraction (SERO… (human) [29]): 2; SEQUEST rank in displacer fraction (CERULOPLASMIN (human) [30]): 24; SEQUEST rank in displacer fraction [31]: 20; SEQUEST rank in displacer fraction [32]: 4; SEQUEST rank in displacer fraction (HAPTOGLOBIN-2 (human) [33]): 9
wheat germ agglutinin (WGA), agarose-bound (from UniProt P10968 27-197) | 1.7 | 129 | 8.1 | 1.8 | 236 | 9.1e+06 | 6e+07 | 23 | 2 | 0.9 | 163 | 0 | 5e+07 | 8.2e+07 | 1.6e+07 | 1.1e+07 | 1.1e+07 | 9 | 2 | 24 | SEQUEST ranking (relative abundance in the WGA displacement fraction) (HAPTOGLOBIN-2 (human) [17]): 1 to 5 rank; SEQUEST rank in displacer fraction [21]: 28; peptide peak area in displacer fraction [22]: 1.7e+06 counts; peptide peak area in displacer fraction [23]: 1.29e+08 counts; peptide peak area in displacer fraction (SERO… (human) [24]; peptide at M/Z 530.2): 7.7e+06 counts; peptide peak area in displacer fraction (SERO… (human) [24]; peptide at M/Z 790.1): 5e+06 counts; peptide peak area in displacer fraction [25]: 1.8e+06 counts; peptide peak area in displacer fraction (HAPTOGLOBIN-2 (human) [26]): 2.36e+08 counts; SEQUEST rank in displacer fraction [27]: 81; SEQUEST rank in displacer fraction [28]: 7; SEQUEST rank in displacer fraction (SERO… (human) [29]): 19; SEQUEST rank in displacer fraction (CERULOPLASMIN (human) [30]): 8; SEQUEST rank in displacer fraction [31]: 52; SEQUEST rank in displacer fraction [32]: 10; SEQUEST rank in displacer fraction (HAPTOGLOBIN-2 (human) [33]): 4
